# Laboratory results from PMC4314665, “Diversity of two-component systems: insights into the signal transduction mechanism by the Staphylococcus aureus two-component system GraSR” (F1000Research, 2014).
# What was measured:
# [1] = target: T1, GraR (Staphylococcus aureus Mu50) (UniProt Q932F1); assay: DNase I footprinting; conditions: 10 ng 32P-labelled promoter DNA, buffer, salt, pH and temperature not given (as described previously, ref 17)
# T1 sequence: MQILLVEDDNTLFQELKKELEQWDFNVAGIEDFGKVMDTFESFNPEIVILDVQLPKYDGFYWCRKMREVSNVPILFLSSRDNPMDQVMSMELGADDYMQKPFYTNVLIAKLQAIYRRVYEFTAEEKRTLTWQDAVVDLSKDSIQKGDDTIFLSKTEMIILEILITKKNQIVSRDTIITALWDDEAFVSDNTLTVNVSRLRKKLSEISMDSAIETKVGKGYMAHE
# [2] = tested on: GraR (Staphylococcus aureus Mu50); assay: DNase I footprinting; conditions: 10 ng 32P-labelled promoter DNA, buffer, salt, pH and temperature not given (as described previously, ref 17)
# [3] = tested on: GraR C (C-terminal DNA-binding domain) (Staphylococcus aureus Mu50); assay: DNase I footprinting; conditions: 10 ng 32P-labelled promoter DNA, buffer, salt, pH and temperature not given (as described previously, ref 17)
# [4] = target: the molecule itself; assay: SDS-PAGE in the presence and absence of DTT; purified GraX on SDS-PAGE with and without dithiothreitol; data not shown
# [5] = target: T2, GST-BceS, cytoplasmic region of histidine kinase BceS (62-334) fused to GST (B. subtilis strain 168, UniProt O35044 62-334); assay: pull-down; GST-fused bait immobilised on glutathione-sepharose resin in 1 x PBS; prey added at bait:prey ratios of about 1:1 to 1:2, 30 min at room temperature; five to seven washes; elution with 10 mM reduced glutathione in 50 mM Tris pH 8.0; SDS-PAGE; conditions: both partners purified
# T2 construct: Histidine kinase BceS (334 amino acids), B. subtilis strain 168, cytoplasmic region, residues 62-334; Cloned in pGEX-4T-1; source: E. coli BL21(DE3), purified (glutathione-sepharose); not shown: GST, N-terminal, kept
# T2 sequence: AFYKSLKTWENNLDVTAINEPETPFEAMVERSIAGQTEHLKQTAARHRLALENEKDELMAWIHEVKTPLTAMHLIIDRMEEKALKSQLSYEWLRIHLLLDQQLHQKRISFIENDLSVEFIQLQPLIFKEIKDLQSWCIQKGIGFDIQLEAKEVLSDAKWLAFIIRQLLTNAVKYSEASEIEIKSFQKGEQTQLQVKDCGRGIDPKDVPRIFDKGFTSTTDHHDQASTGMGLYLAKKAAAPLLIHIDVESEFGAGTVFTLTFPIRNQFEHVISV
molecule,measurement,setting,value
GGATCCTTTAGGTTTCATCTAAAATACTCCTTTAAACTGTAACCAAAAAACATATTACTCCACCTTTTAGTTACATATATATTATAATAGTAGCAAATGTTTTAAAATTTCAAAATACTGGAGGCTTTTTATGGCCCATATTATACGTAGAGTTAGTATCAAAGATGTAGAAAATTTCATTTCAATGAATTCCG (double strand) [graSR promoter],binding,[1],no binding
PvraFG promoter,Kd,[2],800 nM
same,Kd,[3],2400 nM
"GraX, auxiliary protein (tagless) (natural protein, Auxiliary protein GraX, S. aureus strain Mu50, full length graX gene; Cloned in pET26b between NdeI and HindIII; Dimers seen by SDS-PAGE without DTT; also called untagged GraX; source: E. coli BL21(DE3), purified (SP-Sepharose cation exchange), to 90%) MKPKVLLAGGTGYIGKYLSEVIENDAELFAISKYPDNKKTDDVEMTWIQCDIFHYEQVVAAMNQIDIAVFFIDPTKNSAKITQSSARDLTLIAADNFGRAAAINQVKKVIYIPGSRYDNETIERLGAYGTPVETTNLVFKRSLVNVELQVSKYDDVRSTMKVVLPKGWTLKNVVNHFIAWMGYTKGTFVKTEKSHDQFKIYIKNKVRPLAVFKIEETADGIITLILLSGSLVKKYTVNQGKLEFRLIKESAVVYIHLYDYIPRLFWPIYYFIQAPMQKMMIHGFEVDCRIKDFQSRLKSGENMKYTK",stoichiometry N,[4],2
"BceR, response regulator of Bacillus subtilis (natural protein, Response regulator BceR, B. subtilis strain 168; the bceR gene amplified with primers from the start to the stop codon; no extra amino acids on either terminus; Cloned in pET26b(+), untagged; source: E. coli BL21(DE3), purified (DEAE-Sepharose, heparin-sepharose), up to 90% purity) MFKLLLIEDDESLFHEIKDRLTGWSYDVYGIQDFSQVLQEFAAVNPDCVIIDVQLPKFDGFHWCRLIRSRSNVPILFLSSRDHPADMVMSMQLGADDFIQKPFHFDVLIAKIQAMFRRVHHYNTEPSTIKTWCGAAVDAEQNLVSNDKGSVELTKNEMFILKQLIEQKNKIVSREELIRSLWNDERFVSDNTLTVNVNRLRKKLDALQLGAYIETKVGQGYIAKEEDKFYD",binding result,[5],binds
